Reference: article PMC314469, “Protein Interaction Networks by Proteome Peptide Scanning” (PLoS Biology, 2004)

Molecular target: Sho1 SH3 (SHO1_YEAST), P40073
Assay: SPOT array

Sequence of Sho1 SH3 (SHO1_YEAST), P40073 (P40073 295-366): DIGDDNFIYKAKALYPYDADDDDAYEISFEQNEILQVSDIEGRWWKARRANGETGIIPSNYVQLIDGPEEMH

Binder | normalised SPOT signal, Boehringer light units (BLU); mean over the file's lines of this peptide
LNSPDLPERTKLRN [445-458 Septin homolog] | 110
KLEPENPQKPSNTH [238-251 Hypothetical ORF] | 94.4
KNLPLNPSKKLEGK [313-326 Hypothetical ORF] | 206
IFGPFGPMKEVKIL [144-157 nuclear shuttling protein with an RNA recognition motif] | 250
KWEPSTPQRNGPIL [158-171 Hypothetical ORF] | 175
KSSPWSPYKVEKVL [161-174 Mitotic spindle protein involved in chromosome segregation.] | 137
IPTPSKPLKKRKKR [390-403 serine/threonine-rich membrane protein] | 86.1
KKLPTGPSKKRQRK [1280-1293 transcriptional regulator] | 203
IFPPLNPARTSLNS [172-185 homologous to Ssf2p;possibly involved in mating] | 87.7
ISTPPPPPKMAIPA [390-403 " type II PI(4)P5-kinase (PIP4,5 kinase) similar to human PIP5K-II"] | 56.4
IAYPGDPLRFHSHL [207-220 34kDa subunit of the tetrameric tRNA splicing endonuclease] | 174
LDYPKAPIKLTMKS [160-173 Hypothetical ORF] | 175
KPDPESPSKLRHYE [851-864 involved in cell wall biogenesis] | 216
KKDPNAPKRRLSAY [21-34 11-kDa nonhistone chromosomal protein] | 152
KKDPFPPPKDLLVQ [421-434 110 kDa subunit of the centromere binding factor CBF3] | 64.6
LMPPDSPPRMTENT [1790-1803 "RAP1-interacting factor, involved in establishment of repressed chromatin"] | 121
IIIPPIPSKHSLLK [171-184 Hypothetical ORF] | 352
ILLPPLPERAYIMD [459-472 Hypothetical ORF] | 242
LLPPTDPFRRKHEQ [63-76 ribosomal protein (weak similarity)] | 155
LPAPHRPEKYKERF [67-80 Hypothetical ORF] | 173
IFGPSFPFRSHIDV [170-183 Possible RNA binding protein. Homolog of Whi3.] | 182
LLKPETPSKRLVIR [249-262 kinesin-related protein involved in mitosis] | 290
ITLPRRPAKKIQLG [41-54 Mitochondrial ribosomal protein MRPL36 (YmL36)] | 281
KLRPDLPVKNFVVK [641-654 subunit of assimilatory sulfite reductase] | 2110
KFIPNKPYRQFNTW [339-352 gamma-aminobutyrate (GABA) transaminase (4-aminobutyrate aminotransferase)] | 60.6
LDDPFTPPRWLHHI | 93
LPVPPPPVRPSISF [239-252 RNA polymerase II large subunit] | 172
IAYPFYPFKKLGRQ [32-45 Hypothetical ORF] | 59.4

Second part, the binder after the results:

normalised SPOT signal, Boehringer light units (BLU); mean over the file's lines of this peptide | Binder
31800 | KNLPTIPIRLSGID [143-156 Hypothetical ORF]
237 | KFHPPEPYKGKGIY [187-200 Mitochondrial ribosomal protein MRPL6 (YmL6)]
174 | IINPDTPHRRIFNQ [264-277 AP endonuclease]
94.7 | IHSPRIPSKDEFIA
159 | ILKPDIPLRNMLLR [138-151 Hypothetical ORF]
125 | IIFPTSPTKLTFSN [112-125 Cell cycle-dependent filament between nuclei]
80.2 | LIPPGFPTKNYPPG [185-198 Hypothetical ORF]
338 | LIMPIYPYRLVSTI [525-538 potential membrane glycoprotein with strong similarity to Vth2 and Pep1/Vps10]
113 | IIFPYDPLKLGTHA [509-522 Weak similarity to Pta1p (pre-tRNA processing protein)]
102 | LSIPDLPLRIHNQT [13-26 Hypothetical ORF]
3960 | KRTPKIPEKDVKSD [223-236 Hypothetical ORF]
91.7 | LPPPRSPNRPTLSD [363-376 Hypothetical ORF]
79.6 | KISPSAPSKDSFTK [350-363 nuclear pore protein]
159 | KYDPDNPNKDKLGT
8750 | IMPPPKPFRHGLDS [517-530 Hypothetical ORF]
129 | ILSPGYPNKSFNNK [653-666 heat shock transcription factor]

normalised SPOT signal, Boehringer light units (BLU); mean over the file's lines of this peptide | Binder
164 | IQHPFLPRKIPIIT [408-421 mitochondrial and cytoplasmic valyl-tRNA synthetase]
141 | INQPSTPKKLKRKS [316-329 PLasmid Maintenance]
25.5 | KDHPYDPEKDSVLK [97-110 vacuolar ATPase V1 domain subunit F (14 kDa)]
109 | LPPPIIPLRKYGHN [693-706 Pho85 kinase inhibitor]
48.8 | IFDPQDPYRRAQQF [496-509 Hypothetical ORF]
61.6 | LHGPFKPVKSSNGE [25-38 Hypothetical ORF]
224 | KKYPRKPKKNLNLG [336-349 Hypothetical ORF]
141 | IEVPQSPTKNRVKV [61-74 (putative) involved in DNA replication]
85.4 | KSFPPPPLKPGQKT [84-97 Hypothetical ORF]
106 | LAPPLSPTKPSPLH [253-266 Hypothetical ORF]
1220 | KIMPPTPAKKVEFI [312-325 putative GTP-exchange protein]
16.2 | LPVPQLPPKLLVYP [17-30 RNA polymerase II-associated protein]
103 | LIDPSTPDKAAKKD
530 | IVNPFIPRRPYSNV [859-872 Hypothetical ORF]
112 | IAHPVRPHRAITMT [631-644 dual specificity protein phosphatase]
